According to patent US20230212294A1 (MINGHUI PHARMACEUTICAL SHANGHAI, published 2023):
Changes are numbered by the printed parent chain.

T1: B7-H3 on CHOK cells overexpressing B7-H3
T1 sequence (Q5ZPR3 whole entry, species assumed, looked up): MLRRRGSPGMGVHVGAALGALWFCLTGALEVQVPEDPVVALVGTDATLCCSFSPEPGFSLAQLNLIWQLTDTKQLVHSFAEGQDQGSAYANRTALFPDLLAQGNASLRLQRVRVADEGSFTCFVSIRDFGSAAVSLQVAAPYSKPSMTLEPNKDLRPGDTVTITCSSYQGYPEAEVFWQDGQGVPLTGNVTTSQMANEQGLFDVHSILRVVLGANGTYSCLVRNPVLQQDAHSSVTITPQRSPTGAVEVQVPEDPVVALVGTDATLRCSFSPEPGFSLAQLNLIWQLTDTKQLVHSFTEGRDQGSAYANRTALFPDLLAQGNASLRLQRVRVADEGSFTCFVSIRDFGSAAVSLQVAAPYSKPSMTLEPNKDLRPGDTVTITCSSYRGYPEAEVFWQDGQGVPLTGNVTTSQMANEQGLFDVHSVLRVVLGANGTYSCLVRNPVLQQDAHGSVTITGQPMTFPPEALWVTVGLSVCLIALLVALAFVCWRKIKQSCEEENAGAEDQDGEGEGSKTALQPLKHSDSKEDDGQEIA

T2: monkey B7-H3-his (monkey)
T2 chain: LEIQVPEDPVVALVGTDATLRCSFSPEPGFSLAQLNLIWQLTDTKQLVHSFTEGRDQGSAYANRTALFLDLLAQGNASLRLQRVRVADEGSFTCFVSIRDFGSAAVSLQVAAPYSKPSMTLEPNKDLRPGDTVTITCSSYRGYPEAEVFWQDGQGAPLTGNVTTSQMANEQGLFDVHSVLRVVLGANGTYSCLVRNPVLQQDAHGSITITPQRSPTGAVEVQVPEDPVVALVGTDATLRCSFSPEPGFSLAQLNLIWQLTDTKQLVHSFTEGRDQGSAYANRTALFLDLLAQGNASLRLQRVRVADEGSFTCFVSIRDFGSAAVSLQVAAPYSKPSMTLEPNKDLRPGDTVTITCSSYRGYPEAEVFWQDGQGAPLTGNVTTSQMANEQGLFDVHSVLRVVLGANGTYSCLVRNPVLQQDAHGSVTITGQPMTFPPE

T3: mouse B7-H3-his (mouse, UniProt Q8VE98 29-244, limits assumed)
T3 construct: His-tagged recombinant protein coated on the ELISA plate; not shown: his tag
T3 sequence (looked up): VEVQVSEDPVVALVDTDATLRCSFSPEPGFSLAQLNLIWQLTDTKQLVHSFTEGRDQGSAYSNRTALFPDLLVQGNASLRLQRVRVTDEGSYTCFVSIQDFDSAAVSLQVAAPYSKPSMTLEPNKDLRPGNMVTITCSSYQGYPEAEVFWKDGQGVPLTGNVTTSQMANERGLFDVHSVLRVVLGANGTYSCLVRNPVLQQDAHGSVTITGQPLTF

T4: B7-H3 endogenously expressed on human tumor cell lines (human, UniProt Q5ZPR3 29-534)
T4 construct: whole, on cells; The cell line is named in the assay or readout field of each row; also called NCI-H322 cells endogenously expressing B7-H3; B7-H3-positive human tumor cell lines NCI-H1975, BxPC-3, Calu-6
T4 sequence (looked up): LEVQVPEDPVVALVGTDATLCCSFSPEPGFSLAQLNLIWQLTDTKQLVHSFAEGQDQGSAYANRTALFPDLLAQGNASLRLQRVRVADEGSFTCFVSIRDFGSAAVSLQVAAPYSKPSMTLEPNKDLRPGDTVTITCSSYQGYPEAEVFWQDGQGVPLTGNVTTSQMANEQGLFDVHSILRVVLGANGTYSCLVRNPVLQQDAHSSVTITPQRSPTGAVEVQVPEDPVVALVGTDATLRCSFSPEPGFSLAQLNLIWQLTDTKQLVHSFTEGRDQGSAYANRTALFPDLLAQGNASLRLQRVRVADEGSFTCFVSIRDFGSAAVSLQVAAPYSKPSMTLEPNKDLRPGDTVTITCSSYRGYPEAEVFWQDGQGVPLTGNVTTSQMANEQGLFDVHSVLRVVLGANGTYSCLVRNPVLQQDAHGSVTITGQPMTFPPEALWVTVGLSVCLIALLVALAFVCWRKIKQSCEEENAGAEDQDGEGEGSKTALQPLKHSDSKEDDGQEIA

B1: IL-P6-C11 (antibody, V domains shown)
VH: EVQLQQSGPELVKPGASVRISCKTSGYTFTDYVIHWVKQNHGGSLEWIGGINRDSGGTTYNQKFQDKVTLTVDKSSNTAYMELRSLTSEDSAVYYCTKWKFPWYFDVWGAGTTVTVSS
VL: DIELTQSPAIMSASPGEKVTMTCSASSSISYMHWYQQKPGTSPKRWIYDTSKLASGVPARFSGSGSGTSYSLTISRVEAEDAATYYCQQWSSNPLTFGSGTKLEIK
notes: Unhumanized murine variable regions; full-length antibody
B2: NL24-A68 (antibody, V domains shown)
VH: QVQLVQSGAEVKKPGSSVKVSCKASGGTFSSYAISWVRQAPGQGLEWMGGIIPILGIANYAQKFQGRVTITADKSTSTAYMELSSLRAEDTAVYYCARGGSGRYLPDYWGQGTLVTVSA
VL: EIVLTQSPATLSLSPGERATLSCRASQSVSSYLAWYQQKPGQAPRLLIYDASNRATGIPARFSGSGSGTDFTLTISSLEPEDFAVYYCQQRSNWPPSLTFGGGTKVEIK
notes: Screened from the human source library; full-length antibody; also called NL24A68HC; NL24A68LC
B3: IL-P6-B07 (antibody, V domains shown)
VH: B1 VH with D31E
VL: B1 VL with E3V, I29V, P39S, R76S, V77M, S99A, I105L
notes: as for B1
B4: NL24-A17 (antibody, V domains shown)
VH: QVQLVQSGAEVKKPGSSVKVSCKASGGTFSSYAISWVRQAPGQGLEWMGGIIPILGIANYAQKFQGRVTITADESTSTAYMELSSLRSEDTAVYYCARGDSGYDSNYWGQGTLVTVSA
VL: B2 VL with S31T, F83Y, S97L, L98F, G102P, E107D
notes: Screened from the human source library; full-length antibody; also called NL24A17HC; NL24A17LC
B5: NL24-A10 (antibody, V domains shown)
VH: B2 VH with Q1E, L55F, I57T, K74E, A88S, G100E, S101R, R103S, P106I
VL: B2 VL with S97M, L98Y, G102Q, V106L
notes: Screened from the human source library; full-length antibody; also called NL24A10HC; NL24A10LC
B6: IL-P5-C06-H2L3 (antibody, V domains shown)
VH: QVQLVQSGAEVKKPGASVKVSCKGSGYTFTDYAIHWGRQAPGQGLEWIGIINTYNGNSNYAQKFQGRATMTRDTSTSTAYMELSRLRSEDTAVYYCARNYGSSFNWYFDVWGQGTTVTVSS
VL: DIQLTQSPSSLSASVGDRVTITCRASSSISSNYLHWYQQKPGKAPKLLIYSTSNLASGVPSRFSGSGSGTDFTLTISSLQPEDFATYYCQQYSGYPLTFGQGTKLELK
notes: Humanized from IL-P5-C06; full-length antibody; also called ILP5C06huVH2 + ILP5C06huVL3
B7: IL-P5-C06-H1L4 (antibody, V domains shown)
VH: B6 VH with G37A, R72V, T74K
VL: B6 VL with L4M, A56Q
notes: Humanized from IL-P5-C06; full-length antibody; also called ILP5C06huVH1 + ILP5C06huVL4
B8: IL-P5-C06-H3L3 (antibody, V domains shown)
VH: B6 VH with G24A, I48M, A68V
VL: B6 VL
notes: Humanized from IL-P5-C06; full-length antibody; also called ILP5C06huVH3 + ILP5C06huVL3
B9: IL-P5-C06-H3L4 (antibody, V domains shown)
VH: B6 VH with G24A, I48M, A68V
VL: B6 VL with L4M, A56Q
notes: Humanized from IL-P5-C06; full-length antibody; also called ILP5C06huVH3 + ILP5C06huVL4

Target: T1, B7-H3 on CHOK cells overexpressing B7-H3
Assay: cell-based or functional assay

**Q.** Which “IC50 of CHO endocytosis experiment (toxin-labeled secondary antibody, cell viability)” value does the source give for B1 here?
**A.** Its value is 0.0035 µg/mL.

**Q.** Which “IC50 of CHO endocytosis experiment (toxin-labeled secondary antibody, cell viability)” value does the source give for B2 here?
**A.** The value was 0.0035 µg/mL.

Target: T2, monkey B7-H3-his
Assay: ELISA, antigen coated at 2 µg/mL
Method: (§1) Human B7-H3-his, mouse B7-H3-his and monkey B7-H3-his were diluted to 2 μg/mL with PBS, and added to the ELISA plate at 30 μL per well. The ELISA plate was then incubated in a refrigerator at 4° C. for 16-20 hours. The next day, the ELISA plate was washed once with a lotion (PBS containing 0.05% Tween 20) and then blocked with 5% skim milk powder for 1 hour. After blocking, the ELISA plate was washed once, then added with gradient-diluted anti-B7-H3 antibodies, and incubated at room temperature for 1 h. After incubated, the ELISA plate was washed three times, then added with goat anti-human HRP-labeled secondary antibody, and incubated at room temperature for 1 h. After incubated, the ELISA plate was washed three times, then developed for 5-15 minutes by adding TMB, and finally terminated with 2M sulfuric acid. The data were recorded on the microplate reader.

**Q.** Which EC50 does the source give for B1 here?
**A.** Its EC50 is 0.0152 µg/mL.

**Q.** For B3, which EC50 is on record?
**A.** Its EC50 is 0.183 µg/mL.

**Q.** How did the EC50 turn out when B2 was run?
**A.** The EC50 was 0.131 µg/mL.

**Q.** How did the EC50 turn out when B4 was run?
**A.** Its EC50 is 0.0527 µg/mL.

**Q.** How did the EC50 turn out when B5 was run?
**A.** Its EC50 is 0.124 µg/mL.

Target: T3, mouse B7-H3-his
Assay: ELISA, antigen coated at 2 µg/mL
Method: as §1

**Q.** Which EC50 does the source give for B1 here?
**A.** The EC50 was 0.523 µg/mL.

**Q.** With B3 as the binder, how does the EC50 read?
**A.** The EC50 was 1.29 µg/mL.

**Q.** B2 was tested. Which EC50 did it give?
**A.** Its EC50 is 0.205 µg/mL.

**Q.** Which EC50 does the source give for B4 here?
**A.** The EC50 was 0.0643 µg/mL.

**Q.** Which EC50 does the source give for B5 here?
**A.** The EC50 was 0.219 µg/mL.

Target: T4, B7-H3 endogenously expressed on human …
Assay: flow cytometry on NCI-H322 cells
Method: (§2) CHOK cells overexpressing B7-H3 or NCI-H322 cells endogenously expressing B7-H3 were added to a round-bottom 96-well plate at 100,000 cells per well, centrifuged to remove the supernatant, and then added with a gradient-diluted anti-B7-H3 antibody and incubated at 4 degrees for 1 h. After incubation, the cells were washed twice with FACS buffer (PBS containing 2% FBS), then added with fluorescent-labeled goat anti-human secondary antibody (Abcam, ab98596) and incubated for 0.5 h. After incubation, the cells were washed twice with FACS buffer, then resuspended with FACS buffer and detected with flow cytometry (Beckman, cytoFlex).

**Q.** B1 was tested. Which EC50 did it give?
**A.** Its EC50 is 0.21 µg/mL.

**Q.** How did the EC50 turn out when B3 was run?
**A.** The EC50 was 0.249 µg/mL.

**Q.** How did the EC50 turn out when B6 was run?
**A.** The EC50 was 0.0618 µg/mL.

**Q.** For B7, which EC50 is on record?
**A.** The EC50 was 0.0436 µg/mL.

**Q.** Which EC50 does the source give for B8 here?
**A.** The EC50 was 0.137 µg/mL.

**Q.** Which EC50 does the source give for B9 here?
**A.** The EC50 was 0.107 µg/mL.

**Q.** How did the EC50 turn out when B2 was run?
**A.** The EC50 was 0.0484 µg/mL.

**Q.** How did the EC50 turn out when B4 was run?
**A.** The EC50 was 0.0267 µg/mL.

**Q.** Which EC50 does the source give for B5 here?
**A.** Its EC50 is 0.0304 µg/mL.

Target: T1, B7-H3 on CHOK cells overexpressing B7-H3
Assay: flow cytometry on CHOK cells overexpressing B7-H3
Method: as §2

**Q.** Which EC50 does the source give for B1 here?
**A.** The EC50 was 0.311 µg/mL.

**Q.** B6 was tested. Which EC50 did it give?
**A.** The EC50 was 0.826 µg/mL.

**Q.** Which EC50 does the source give for B7 here?
**A.** The EC50 was 0.596 µg/mL.

**Q.** With B8 as the binder, how does the EC50 read?
**A.** Its EC50 is 1.18 µg/mL.

**Q.** Which EC50 does the source give for B9 here?
**A.** The EC50 was 1.13 µg/mL.

**Q.** B4 was tested. Which EC50 did it give?
**A.** Its EC50 is 0.665 µg/mL.

**Q.** B5 was tested. Which EC50 did it give?
**A.** Its EC50 is 0.448 µg/mL.
